Measurements: patent US20130053541A1, “METHODS FOR DISCOVERING MOLECULES THAT BIND TO PROTEINS” (LYNNTECH, INC., priority 2011, published 2013)
Where no end group is shown, it is not given here.

T1: native human ESRRG protein (Estrogen-receptor related receptor gamma) (human, UniProt P62508 229-458, limits assumed)
T1 construct: the screened protein is called 'native human ESRRG protein'; also called ESSRG; ERRγ
T1 sequence (looked up): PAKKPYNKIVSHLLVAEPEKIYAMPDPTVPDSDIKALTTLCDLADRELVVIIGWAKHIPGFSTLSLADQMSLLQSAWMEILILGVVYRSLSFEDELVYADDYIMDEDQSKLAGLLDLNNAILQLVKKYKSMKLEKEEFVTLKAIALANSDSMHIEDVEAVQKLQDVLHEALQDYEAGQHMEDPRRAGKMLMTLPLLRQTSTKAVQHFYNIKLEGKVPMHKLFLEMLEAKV


Experiments:
[1] = target: T1, native human ESRRG protein …; assay: custom peptide microarray density chip
[2] = target: T1, native human ESRRG protein …; assay: peptide microarray, Iteration 1; bound ESRRG detected with fluorescent anti-ESRRG mAb
Experimental: (§1) Screening was carried out typically by hybridization of the protein (1 μg/mL) against the array for 1 h at 4° C.; detection of bound protein was carried out using a fluorescently labeled anti-ESRRG mAb. (Direct labeling of ESRRG and alternative detection strategies are equally valid).
Daughter candidate ligands and their new Tier 3 and/or Tier 1 based combinations were synthesized in situ on an addressable peptide microarray and screened against native human ESRRG protein in order to determine sequences that bind to this protein. Bound protein was detected by a fluorescently labeled anti-ESRRG mAb. […] Excess (100×) competing biological matrices (human serum, HSA/BSA or bacterial protein extract) were used as backgrounds to select for specific ligands to the protein. Other competing proteins can be added to background for specificity selection and directed evolution of ligands.

[3] = target: T1, native human ESRRG protein …; assay: peptide microarray, Iteration 2; bound ESRRG detected with fluorescent anti-ESRRG mAb
Experimental: as §1
Iterative sequence expansion and arraying of 10 highest binding ligands to ESRRG from Iteration 1 was carried out and the new peptide sequences were synthesized on an array and screened against the protein, as described above. In this step, the central 2 amino acids (core) in peptide sequences were maintained unchanged while outlying amino acids (2, 3, 6, and 7) were permuted (using Tier 1 and Tier 3 substitutions) in a ‘cipher’ or ‘combination’ lock approach.

Binder	Kd [1]	Sample B (Probe) Signal [2]	log2 (Sample B/Sample A) [2]	Sample B (Probe) Signal [3]	log2 (Sample B/Sample A) [3]
Ac-IFSEIRVY	16.1 nM	–	–	–	–
Ac-IFSEMRVY	7.88 nM	–	–	–	–
Ac-IFSKIRVY	15.6 nM	–	–	–	–
Ac-AANMLLLL	–	1190 fluorescence intensity units	5.52	–	–
Ac-AANYVLLL	–	2200 fluorescence intensity units	7.22	–	–
Ac-AANNYLLL	–	3440 fluorescence intensity units	6.78	–	–
Ac-AANMSLLL	–	1220 fluorescence intensity units	6.16	–	–
Ac-AANYLLLL	–	3760 fluorescence intensity units	7.4	–	–
Ac-AANMFLLL	29 nM	1750 fluorescence intensity units	5.37	–	–
Ac-AANYILLL	–	2010 fluorescence intensity units	7.19	–	–
Ac-AANMYLLL	–	4010 fluorescence intensity units	5.95	–	–
Ac-ANNIRLLH	18.9 nM	–	–	–	–
Ac-ANNVRLLH	30.5 nM	–	–	–	–
Ac-ANNSRLLH	28.9 nM	1480 fluorescence intensity units	5.54	–	–
Ac-ANNLRLLH	28.9 nM	–	–	–	–
Ac-ANNVSLLH	–	1820 fluorescence intensity units	4.87	–	–
Ac-ANNSWLLH	–	1260 fluorescence intensity units	5.97	–	–

Binder	Kd [1]	Sample B (Probe) Signal [2]	log2 (Sample B/Sample A) [2]	Sample B (Probe) Signal [3]	log2 (Sample B/Sample A) [3]
Ac-ANNVKLLH	–	1720 fluorescence intensity units	5.04	–	–
Ac-ANNVLLLH	–	2000 fluorescence intensity units	4.92	–	–
Ac-LLHSSKSQ	28.3 nM	819 fluorescence intensity units	5.4	–	–
Ac-IKQNHNNS	12.5 nM	794 fluorescence intensity units	9.63	–	–
Ac-NIKVNANN	17 nM	599 fluorescence intensity units	7.62	–	–
Ac-FWKGHFDF	9.16 nM	–	–	1460 fluorescence intensity units	2.66
Ac-IFSYVRVY	15.4 nM	–	–	–	–
Ac-IFSYPRVY	17.5 nM	–	–	–	–
Ac-NNSWSLHL	–	729 fluorescence intensity units	4.95	–	–
Ac-AIRGHLMG	–	935 fluorescence intensity units	5.63	–	–
Ac-AIRLHLMG	22.4 nM	943 fluorescence intensity units	5.07	–	–
Ac-AIRGALMG	27.4 nM	851 fluorescence intensity units	5.48	–	–
Ac-AIRVHLMG	–	690 fluorescence intensity units	5.87	–	–
Ac-AIRLFLMG	13.8 nM	–	–	–	–
Ac-FYNMYLLN	27.4 nM	–	–	1560 fluorescence intensity units	2.63
Ac-NSLRKHLL	24.4 nM	856 fluorescence intensity units	5.36	–	–

The next lines start with the values.

Kd [1]	Sample B (Probe) Signal [2]	log2 (Sample B/Sample A) [2]	Sample B (Probe) Signal [3]	log2 (Sample B/Sample A) [3]	Binder
24.7 nM	–	–	–	–	Ac-NIKLFANN
19.3 nM	–	–	–	–	Ac-VQYNYLQR
26.7 nM	–	–	–	–	Ac-SLLFHLLK
17.9 nM	–	–	–	–	Ac-QYPKMQRL
–	868 fluorescence intensity units	4.95	–	–	Ac-RKALVGKY
–	622 fluorescence intensity units	6.48	–	–	Ac-LHLKGSQT
–	1040 fluorescence intensity units	5.34	–	–	Ac-NSLSWHLL
–	818 fluorescence intensity units	5.11	–	–	Ac-RKAIFGKY
28.5 nM	962 fluorescence intensity units	4.99	–	–	Ac-LLHKSKSQ
15.7 nM	701 fluorescence intensity units	9.45	–	–	Ac-IKQDHNNS
–	863 fluorescence intensity units	6.58	–	–	Ac-NIKVHANN
27.4 nM	–	–	1800 fluorescence intensity units	2.37	Ac-VLLHYGLY
–	7390 fluorescence intensity units	6.38	–	–	Ac-KSLLQQLL
29.4 nM	–	–	–	–	Ac-NNSWRLHL
29.1 nM	–	–	2530 fluorescence intensity units	3.05	Ac-LYLLKHHP
18.3 nM	9220 fluorescence intensity units	10.8	–	–	Ac-NSLKKHLL
20.7 nM	14800 fluorescence intensity units	7.65	–	–	Ac-NSLLKHLL
–	745 fluorescence intensity units	5.64	–	–	Ac-LLHLQKSQ
